B1: WASH complex subunit homolog 3 (Caenorhabditis elegans), O01901 (parent)
chain: MNASSRTKPAIDLNKVPPIDHHRTAVTFNCLIMKMTEMLNNFGNKMEDILEKAEQSLDTADRKLRLMESKLAGMSLEDKSTTATPSSAPEIDEIHESNPSSSQIVEETVEEKPEEHTTTVLIKDDPAYSKYFKMLKLGVLEAGVIQKMKSEGVDPSILKRGDEPSRPQAQTSRNYESSGESTASFSDSD
partner: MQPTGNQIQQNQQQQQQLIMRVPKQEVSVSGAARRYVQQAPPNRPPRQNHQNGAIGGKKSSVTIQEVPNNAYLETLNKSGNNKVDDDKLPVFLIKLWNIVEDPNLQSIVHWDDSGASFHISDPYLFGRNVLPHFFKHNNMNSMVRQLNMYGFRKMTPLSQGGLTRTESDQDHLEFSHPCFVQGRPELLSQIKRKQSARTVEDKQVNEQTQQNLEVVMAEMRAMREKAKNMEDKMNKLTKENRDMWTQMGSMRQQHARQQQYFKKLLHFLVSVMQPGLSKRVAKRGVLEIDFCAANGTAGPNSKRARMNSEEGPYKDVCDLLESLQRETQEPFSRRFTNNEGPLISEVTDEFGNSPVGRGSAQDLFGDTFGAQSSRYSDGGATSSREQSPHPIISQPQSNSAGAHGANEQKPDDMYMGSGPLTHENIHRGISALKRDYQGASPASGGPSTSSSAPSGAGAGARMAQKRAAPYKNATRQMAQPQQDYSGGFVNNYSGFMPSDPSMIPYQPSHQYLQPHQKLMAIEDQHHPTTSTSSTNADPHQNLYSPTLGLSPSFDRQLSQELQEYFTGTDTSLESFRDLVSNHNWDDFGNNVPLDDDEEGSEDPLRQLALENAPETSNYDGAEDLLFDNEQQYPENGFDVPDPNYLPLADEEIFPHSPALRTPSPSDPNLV

Variants of: B1
Conditions: with hsf1_caeel hsf-1, G5EFT5

| effect of a mutation on the interaction | Variant |
| --- | --- |
| increasing interaction | MNASSRTKPAIDLNKVPPIDHHRTAVTFNCLIMKMTEMLNNFGNKMEDILEKAEQSLDTADRKLRLMESKLAGMSLEDKSTTATPSSAPEIDEIHESNPSSSQIVEETVEEKPEEHTTTVLIKDDPAYSKYFKMLKLGVLEAGVIQKMKSEGVDPSILKRGDEPSRPQAQTSRNYESSGESAASFSDSD [T182A] |

Reference: IntAct's records for PubMed 22265419
